Tests used:
[1] = biological target: recombinant human insulin-regulated aminopeptidase (IRAP), secreted soluble form (human) (UniProt Q9UIQ6); assay: native gel or EMSA
[2] = biological target: recombinant human insulin-regulated aminopeptidase (IRAP), secreted soluble form (human) (UniProt Q9UIQ6); assay: SEC
[3] = biological target: recombinant human insulin-regulated aminopeptidase (IRAP), secreted soluble form (human) (UniProt Q9UIQ6); assay: enzyme inhibition assay

stoichiometry N [1]	stoichiometry N [2]	Ki [3] [nM]	Molecule
2	2	–	recombinant human insulin-regulated aminopeptidase (IRAP), secreted soluble form (from UniProt Q9UIQ6 155-1025) (enzyme)
–	–	98	VYPWT [peptide inhibitor VYPWT]

Source: paper PMC8207215
